Data: patent publication US9181340B2, “TEM8 antibodies, conjugates thereof, and their use” (The United States of America, as represented by the …, priority 2011, dated 2015)

B1: L5-mIgG2a: mouse/human chimeric anti-TEM8 IgG: human L5 variable domains fused with mouse IgG2a constant domains (antibody, V domains shown)
VH: QVQLVESGGGLVQPGGSLRLSCAASGFTFNSYGLSWVRQAPGKGLEWVSNISSNGSYTYYADSVKGRFTISRDNSKNTLYLQMNSLRAEDTAVYYCARAGYGLFDVWGQGTLVTVSSVL
VL: DIELTQPPSVSVAPGQTARISCSGDKLREYYVHWYQQKPGQAPVLVIYGDNKRPSGIPERFSGSNSGNTATLTISGTQAEDEADYYCSSWAGSRSGTVFGGGTKLTVL

Tests used:
NCI-H460 tumors = test: NCI-H460 lung cancer xenograft in nude mice; format: in vivo, mouse; conditions: L2-mIgG2a 20 mg/kg 3 times per week; DMXAA 25 mg/kg then 5 mg/kg/day for two days; tumors 100 mm^3
CMG2 (CHO-CMG2) = CMG2 (CHO-CMG2) (Homo sapiens, UniProt P58335); test: Flow cytometry staining of CHO-CMG2 cells; format: binding; conditions: CMG2 transfectants of CHO/PR230
CMG2 (CHO-CMG2), sequence (P58335 34-489, species assumed): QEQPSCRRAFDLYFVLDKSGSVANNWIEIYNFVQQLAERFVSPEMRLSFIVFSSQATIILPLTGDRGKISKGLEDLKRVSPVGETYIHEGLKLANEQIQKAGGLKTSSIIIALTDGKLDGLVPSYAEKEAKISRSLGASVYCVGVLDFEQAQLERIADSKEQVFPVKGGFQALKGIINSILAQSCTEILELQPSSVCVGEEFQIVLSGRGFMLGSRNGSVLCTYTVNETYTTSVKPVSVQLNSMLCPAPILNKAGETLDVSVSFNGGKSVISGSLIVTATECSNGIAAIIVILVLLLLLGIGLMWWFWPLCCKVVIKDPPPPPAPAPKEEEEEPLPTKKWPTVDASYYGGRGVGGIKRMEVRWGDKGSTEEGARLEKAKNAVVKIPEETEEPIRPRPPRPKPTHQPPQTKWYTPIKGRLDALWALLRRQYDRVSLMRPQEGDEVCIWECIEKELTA
Description: (§1) Trypsinized cells were rinsed in cold PBS/0.5% BSA (PBS/BSA) and labeled with anti-TEM8 Fabs (human) or full IgG (human-mouse) primary antibodies in PBS/BSA containing 10% goat serum at 4° C. Cells were rinsed with PBS/BSA and incubated with FITC-conjugated goat anti-human Fab or anti-mouse IgG secondary antibodies (Jackson Immunoresearch, West Grove, Pa.), rinsed again, and analyzed on a FACScalibur flow cytometer (Becton Dickinson, Franklin Lakes, N.J.) using CellQuest™ Software.

human TEM8 (CHO-TEM8) = human TEM8 (CHO-TEM8) (Homo sapiens, UniProt Q9H6X2); test: Flow cytometry staining of CHO-TEM8 cells; format: binding
human TEM8 (CHO-TEM8), sequence (Q9H6X2 33-564): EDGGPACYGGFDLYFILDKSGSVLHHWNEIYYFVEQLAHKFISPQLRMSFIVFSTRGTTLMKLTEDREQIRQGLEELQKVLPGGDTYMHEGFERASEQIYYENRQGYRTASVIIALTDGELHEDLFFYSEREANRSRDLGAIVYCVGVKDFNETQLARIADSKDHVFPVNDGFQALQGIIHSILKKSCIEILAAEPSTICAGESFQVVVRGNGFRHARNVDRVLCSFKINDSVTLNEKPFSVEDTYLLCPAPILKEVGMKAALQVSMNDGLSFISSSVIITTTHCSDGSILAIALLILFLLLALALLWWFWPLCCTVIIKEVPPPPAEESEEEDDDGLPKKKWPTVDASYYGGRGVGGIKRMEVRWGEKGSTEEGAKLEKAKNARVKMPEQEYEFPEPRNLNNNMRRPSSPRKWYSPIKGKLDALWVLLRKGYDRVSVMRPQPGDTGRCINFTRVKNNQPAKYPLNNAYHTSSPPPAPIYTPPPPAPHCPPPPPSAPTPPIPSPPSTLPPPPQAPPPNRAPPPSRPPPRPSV
Description: as §1

[1] = tested on: UACC human melanoma xenografts; test: UACC melanoma xenograft in nude mice; format: in vivo, mouse; conditions: dose-escalation study, 15 mg/kg 3× per week
HCT-116 tumors = test: HCT-116 colon xenograft in nude mice; conditions: treatment 3 times per week from 50 mm^3
[2] = tested on: CHO-TEM8 cells treated with lethal toxin; format: cell-based, Chinese Hamster

Row | Molecule | NCI-H460 tumor growth (NCI-H460 tumors) | reactivity with CMG2 (CMG2 (CHO-CMG2)) | staining of CHO-TEM8 cells (human TEM8 (CHO-TEM8)) | UACC tumor growth inhibition at 15 mg/kg [1] | HCT-116 tumor growth (HCT-116 tumors) | EC50 of protection from lethal toxin toxicity [2] [mg/L]
1 | Cc1ccc2c(=O)c3cccc(CC(=O)O)c3oc2c1C [DMXAA, 5,6-dimethylxanthenone-4-acetic acid, reference compound] | significantly delayed tumor growth | – | – | – | – | –
2 | B1 | – | failed to react with CMG2 | stained | partial growth inhibition | inhibited HCT-116 tumor growth | 2.575
